Several values for one entry are separate records, joined by “and”; a condition that tells them apart may be missing. Identical values can stand only once. Like-named read-outs stand apart in the source and are kept apart here.
Experiments:
[1] = target: T1, commercial CD3ε (Creative Biomart, Catalog Number CD3E-2194H) (human, UniProt P07766); assay: binding affinity on commercial CD3ε (Creative Biomart CD3E-2194H); method not stated in the legend
T1 construct: commercial recombinant protein; also called commercial CD3E

[2] = target: T2, single chain human CD3ε-26mer-CD3γ (CD3εγ) (human); assay: Biacore, human CD3εγ on chip, antibody in flow-through
T2 construct: also called human CD3εγ
T2 chain: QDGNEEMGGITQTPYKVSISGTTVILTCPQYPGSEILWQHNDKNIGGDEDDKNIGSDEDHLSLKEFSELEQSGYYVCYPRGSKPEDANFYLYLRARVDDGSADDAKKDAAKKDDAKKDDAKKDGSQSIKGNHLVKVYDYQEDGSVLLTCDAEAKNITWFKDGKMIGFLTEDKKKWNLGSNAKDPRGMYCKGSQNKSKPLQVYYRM

cyCD3εγ = target: T3, cyCD3εγ (cynomolgus monkey); assay: monovalent binding affinity, method not stated on the sheet
T3 chain 1: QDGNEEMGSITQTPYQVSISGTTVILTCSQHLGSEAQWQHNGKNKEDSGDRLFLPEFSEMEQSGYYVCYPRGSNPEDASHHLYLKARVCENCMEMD
T3 chain 2: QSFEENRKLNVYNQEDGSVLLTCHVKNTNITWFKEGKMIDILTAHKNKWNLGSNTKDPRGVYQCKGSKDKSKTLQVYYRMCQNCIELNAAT

[3] = target: T2, single chain human CD3ε-26mer-CD3γ …; assay: monovalent binding affinity, method not stated on the sheet; column huCD3εγ
[4] = target: T2, single chain human CD3ε-26mer-CD3γ …; assay: Biacore, monovalent KD of the CD3 arm; CD3 antigen not named on the sheet (reactivity hu, cyno)
G3A = target: T4, G3A; assay: phage ELISA: anti-CD3 antibody coated on the plate, dilution series of M13 phage displaying the CD3εγ variant, anti-M13-HRP, OD A450; [phage] axis 10^-3 to 10^0 without unit
T4 construct: Residue number counts from the N-terminus of CD3ε; also called CD3εγ G3A; CD3 mutant G3A
T4 single chain CD3ε-26mer linker-CD3γ: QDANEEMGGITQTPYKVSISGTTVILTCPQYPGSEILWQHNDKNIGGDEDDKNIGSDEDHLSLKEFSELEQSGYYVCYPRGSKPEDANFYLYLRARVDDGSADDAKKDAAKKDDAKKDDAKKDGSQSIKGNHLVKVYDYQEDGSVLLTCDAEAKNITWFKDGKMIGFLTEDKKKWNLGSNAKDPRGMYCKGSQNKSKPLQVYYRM
Experimental: (§1) This CD3εγ phagemid was used as a template for making single alanine mutations in CD3ε by Kunkel mutagenesis. […] The effect of alanine mutation in CD3εγ on anti-CD3 antibody binding was assessed using a phage ELISA. Each anti-CD3 antibody was immobilized on a NUNC maxisorp plate at 2 μg/ml in PBS buffer overnight at 4° C. Purified phage supernatant displaying a CD3εγ alanine variant (1.0 OD₄₅₀) was added to the plate and allowed to bind at room temperature with shaking for 1 h. After washing, bound phage was detected with anti-M13-HRP (GE Healthcare cat #45-001-419).

N4A = target: T5, N4A; assay: as above
T5 construct: Residue number counts from the N-terminus of CD3ε; also called CD3εγ N4A; CD3 mutant N4A
T5 single chain CD3ε-26mer linker-CD3γ: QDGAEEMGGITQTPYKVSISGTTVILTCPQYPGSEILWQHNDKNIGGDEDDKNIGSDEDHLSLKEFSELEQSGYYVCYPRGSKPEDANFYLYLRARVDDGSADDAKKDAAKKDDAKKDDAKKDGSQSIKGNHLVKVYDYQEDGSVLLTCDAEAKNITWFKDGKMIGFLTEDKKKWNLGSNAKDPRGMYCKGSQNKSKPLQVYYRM
Experimental: as §1

E5A = target: T6, E5A; assay: as above
T6 construct: Residue number counts from the N-terminus of CD3ε; also called CD3εγ E5A; CD3 mutant E5A
T6 single chain CD3ε-26mer linker-CD3γ: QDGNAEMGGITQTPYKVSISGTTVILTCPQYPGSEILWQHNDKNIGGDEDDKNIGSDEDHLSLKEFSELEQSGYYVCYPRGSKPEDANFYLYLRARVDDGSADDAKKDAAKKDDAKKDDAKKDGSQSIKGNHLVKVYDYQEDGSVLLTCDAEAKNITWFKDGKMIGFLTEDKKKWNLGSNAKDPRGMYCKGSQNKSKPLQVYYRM
Experimental: as §1

E6A = target: T7, E6A; assay: as above
T7 construct: Residue number counts from the N-terminus of CD3ε; also called CD3εγ E6A; CD3 mutant E6A
T7 single chain CD3ε-26mer linker-CD3γ: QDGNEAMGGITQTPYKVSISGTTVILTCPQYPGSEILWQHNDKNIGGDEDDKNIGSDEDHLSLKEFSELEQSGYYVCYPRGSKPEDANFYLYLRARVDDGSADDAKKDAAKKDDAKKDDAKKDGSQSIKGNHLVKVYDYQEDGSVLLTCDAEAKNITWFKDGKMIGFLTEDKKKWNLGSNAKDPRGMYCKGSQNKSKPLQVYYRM
Experimental: as §1

[5] = target: T1, commercial CD3ε (Creative Biomart, …); assay: binding affinity on commercial CD3ε (Creative Biomart CD3E-2194H); method not stated in the legend; remark: listed apart in the source
human CD3 on T cells [6] = target: T8, human CD3 on T cells (human, UniProt P07766 22-207); assay: Scatchard; table headed 'Bivalent Binding Affinity', though its footnote reads 'monovalent binding Kd measured by scatchard'; cells not named
T8 construct: whole, on cells; On cells CD3ε stands in the CD3/TCR complex; also called CD3 antigen; CD3ε

human CD3 on T cells [7] = target: T8, human CD3 on T cells; assay: Scatchard; table 'Monovalent Binding Affinity'; the partner arm is not given, the TDB is taken from legend paragraph 149, p-1410 and Figure 16; cells not named
human CD3 on T cells [8] = target: T8, human CD3 on T cells; assay: FACS on Jurkat cells, anti-huIgG-PE, MFI/PE; panel 'Jurkat / CD3 arm'
human CD3 on T cells [9] = target: T8, human CD3 on T cells; assay: FACS on Jurkat cells (CD3), anti-huIgG-PE; number printed beside the curve without a quantity name, taken as EC50
Experimental: (§2) Binding affinities for the each of the CD3/CD20 TDBs were tested by Biacore or FACS analysis, as described above for the anti-CD3 antibodies. Briefly, for Biacore binding assays, human CD3εγ was immobilized on Biacore Series S CM5 sensor chip using the amine coupling kit from Biacore and CD3/CD20 TDBs or Fab variants thereof were in the flow through. For FACS binding assays, either Bjab cells (for B cell antigens) or Jurkat cells (for CD3 antigen) were incubated with various concentrations of TDB antibodies at 4° C. for 30 minutes, then cells were washed and incubated with 2nd antibody (anti-huIgG-PE; BD Bioscience) for another 15 minutes, before cells were washed again and ready for FACS analysis.

human CD3 on T cells [10] = target: T8, human CD3 on T cells; assay: as above; remark: listed apart in the source
Experimental: as §2

human CD3 on T cells [11] = target: T8, human CD3 on T cells; assay: as above; remark: listed apart in the source
Experimental: as §2

B1: humanized 38E4 variant: VH1 graft + R71A / K4 graft + P43S (antibody, V domains shown)
VH: EVQLVQSGAEVKKPGASVKVSCKASGFTFTSYYIHWVRQAPGQGLEWIGWIYPENDNTKYNEKFKDRVTITADTSTSTAYLELSSLRSEDTAVYYCARDGYSRYYFDYWGQGTLVTVSS
VL: DIVMTQSPDSLAVSLGERATINCKSSQSLLNSRTRKNYLAWYQQKPGQSPKLLIYWTSTRKSGVPDRFSGSGSGTDFTLTISSLQAEDVAVYYCKQSFILRTFGQGTKVEIK
**Q.** For B1, which Kd [1] is on record?
**A.** 0.5 nM

B2: anti-CD3 clone 40G5c (antibody, V domains shown)
VH: EVQLVQSGAEVKKPGASVKVSCKASGYTFTNYYIHWVRQAPGQGLEWIGWIYPGDGNTKYNEKFKGRATLTADTSTSTAYLELSSLRSEDTAVYYCARDSYSNYYFDYWGQGTLVTVSS
VL: DIVMTQSPDSLAVSLGERATINCKSSQSLLNSRTRKNYLAWYQQKPGQPPKLLIYWASTRESGVPDRFSGSGSGTDFTLTISSLQAEDVAVYYCTQSFILRTFGQGTKVEIK
notes: also called hu40G5c
**Q.** What does the source list for B2?
**A.** Kd [2]: 15 nM; koff [2]: 0.0176 s⁻¹; kon [2]: 1.2e+06 M⁻¹ s⁻¹; Kd (cyCD3εγ): 14 nM; Kd [3]: 12 nM; Kd [4]: 51 nM; binding result (G3A): binds; binding result (N4A): binds; binding result (E5A): binds; binding result (E6A): binds

B3: murine 41D9 (antibody, V domains shown)
VH: QIQLVQSGPELKKPGETVKISCKASGYTFTNYGMNWVKQAPGKGLKWMGWINTNTGKPTYAEEFKGRFVFSLETSASTTYLQINNLKNEDTATYFCARRGDYRYAWFLYWGQGTLVTVSA
VL: QAVVTQESALTTSPGGTVILTCRSSTGAVTTSNYANWVQEKPDHLFTGLIGGTSNRAPGVPVRFSGSLIGDKAALTITGAQTEDDAMYFCALWYSTHFVFGGGTKVTV
notes: also called 41D9a
**Q.** How did the Kd [5] turn out when B3 was run?
**A.** 1.1 nM

B4: K&H 2H7v16/hu UCHT1vM1 (bispecific antibody, V domains shown)
VH 1: EVQLVESGGGLVQPGGSLRLSCAASGYTFTSYNMHWVRQAPGKGLEWVGAIYPGNGDTSYNQKFKGRFTISVDKSKNTLYLQMNSLRAEDTAVYYCARVVYYSNSYWYFDVWGQGTLVTVSS
VL 1: DIQMTQSPSSLSASVGDRVTITCRASSSVSYMHWYQQKPGKAPKPLIYAPSNLASGVPSRFSGSGSGTDFTLTISSLQPEDFATYYCQQWSFNPPTFGQGTKVEIK
VH 2: EVQLVESGGGLVQPGGSLRLSCAASGYSFTGYTMNWVRQAPGKGLEWVALINPYKGVSTYADSVKGRFTISVDKSKNTAYLQMNSLRAEDTAVYYCARSGYYGDSDWYFDVWGQGTLVTVSS
VL 2: DIQMTQSPSSLSASVGDRVTITCRASQDIRNYLNWYQQKPGKAPKLLIYYTSRLESGVPSRFSGSGSGTDYTLTISSLQPEDFATYYCQQGNTLPWTFGQGTKVEIK
modifications: Knob-into-hole full-length IgG; constant regions are not in the letters.
notes: also called CD3/CD20 TDB 2H7v16/UCHT1vM1
**Q.** Which Kd (human CD3 on T cells [6]) does the source give for B4 here?
**A.** 40 nM

**Q.** And the Kd (human CD3 on T cells [7])?
**A.** 318 nM

B5: CD3/CD20 TDB 2H7v16/UCHT1v9 (bispecific antibody, human IgG1, V domains shown)
VH 1: EVQLVESGGGLVQPGGSLRLSCAASGYTFTSYNMHWVRQAPGKGLEWVGAIYPGNGDTSYNQKFKGRFTISVDKSKNTLYLQMNSLRAEDTAVYYCARVVYYSNSYWYFDVWGQGTLVTVSS
VL 1: DIQMTQSPSSLSASVGDRVTITCRASSSVSYMHWYQQKPGKAPKPLIYAPSNLASGVPSRFSGSGSGTDFTLTISSLQPEDFATYYCQQWSFNPPTFGQGTKVEIK
VH 2: EVQLVESGGGLVQPGGSLRLSCAASGYSFTGYTMNWVRQAPGKDLEWVALINPYKGVSTYNQKFKDRFTISVDKSKNTAYLQMNSLRAEDTAVYYCARSGYYGDSDWYFDVWGQGTLVTVSS
VL 2: DIQMTQSPSSLSASVGDRVTITCRASQDIRNYLNWYQQKPGKAPKLLIYYTSRLESGVPSRFSGSGSGTDYTLTISSLQPEDFATYYCQQGNTLPWTFGQGTKLELK
notes: also called TDB A
**Q.** What does the source list for B5?
**A.** EC50 (read off the curve) (human CD3 on T cells [8]): ~0.1 µg/mL; EC50 (human CD3 on T cells [9]): 0.533 µg/mL; EC50 (human CD3 on T cells [10]): 0.09 µg/mL and 0.6 nM; EC50 (human CD3 on T cells [11]): 0.21 µg/mL and 1.4 nM; Kd (human CD3 on T cells [6]): 3 nM; Kd (human CD3 on T cells [7]): 4.2 nM

— US20200299408A1 (Genentech, published 2020)
